Assay results published in PMC12052844 (iScience, 2025).

T1: full-length wild-type EphB2 on the surface of Expi293F cells (mouse, UniProt P54763-3)
T1 sequence: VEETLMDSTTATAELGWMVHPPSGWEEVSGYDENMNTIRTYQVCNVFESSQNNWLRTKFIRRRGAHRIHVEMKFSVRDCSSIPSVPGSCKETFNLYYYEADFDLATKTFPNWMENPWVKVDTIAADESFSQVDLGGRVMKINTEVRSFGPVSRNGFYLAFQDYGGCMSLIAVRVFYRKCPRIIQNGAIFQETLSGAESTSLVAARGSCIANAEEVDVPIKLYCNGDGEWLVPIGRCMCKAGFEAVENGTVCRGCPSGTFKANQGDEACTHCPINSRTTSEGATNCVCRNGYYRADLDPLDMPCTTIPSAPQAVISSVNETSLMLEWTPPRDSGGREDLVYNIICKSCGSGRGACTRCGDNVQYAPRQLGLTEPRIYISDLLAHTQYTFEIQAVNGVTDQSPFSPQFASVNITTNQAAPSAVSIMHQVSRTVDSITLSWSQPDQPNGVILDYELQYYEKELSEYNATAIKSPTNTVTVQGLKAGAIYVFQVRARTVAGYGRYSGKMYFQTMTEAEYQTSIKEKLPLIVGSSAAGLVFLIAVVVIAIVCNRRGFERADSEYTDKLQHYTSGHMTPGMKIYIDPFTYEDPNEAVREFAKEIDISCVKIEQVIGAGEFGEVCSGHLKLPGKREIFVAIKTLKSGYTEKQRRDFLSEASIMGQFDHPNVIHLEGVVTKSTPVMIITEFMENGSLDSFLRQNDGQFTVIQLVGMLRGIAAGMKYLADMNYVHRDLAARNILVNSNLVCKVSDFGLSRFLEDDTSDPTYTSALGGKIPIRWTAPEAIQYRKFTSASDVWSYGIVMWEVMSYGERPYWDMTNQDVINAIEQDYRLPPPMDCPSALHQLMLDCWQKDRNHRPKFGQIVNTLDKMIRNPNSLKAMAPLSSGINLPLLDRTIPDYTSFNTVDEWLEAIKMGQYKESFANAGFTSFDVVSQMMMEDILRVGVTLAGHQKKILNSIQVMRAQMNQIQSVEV


Tests used:
EphA4 receptor on cells = EphA4 receptor on cells (UniProt Q03137); assay: flow cytometry on cells
[1] = biological target: T1, full-length wild-type EphB2 on the …; assay: flow cytometry on cells

EphA4 receptor on cells, sequence (Q03137 20-986): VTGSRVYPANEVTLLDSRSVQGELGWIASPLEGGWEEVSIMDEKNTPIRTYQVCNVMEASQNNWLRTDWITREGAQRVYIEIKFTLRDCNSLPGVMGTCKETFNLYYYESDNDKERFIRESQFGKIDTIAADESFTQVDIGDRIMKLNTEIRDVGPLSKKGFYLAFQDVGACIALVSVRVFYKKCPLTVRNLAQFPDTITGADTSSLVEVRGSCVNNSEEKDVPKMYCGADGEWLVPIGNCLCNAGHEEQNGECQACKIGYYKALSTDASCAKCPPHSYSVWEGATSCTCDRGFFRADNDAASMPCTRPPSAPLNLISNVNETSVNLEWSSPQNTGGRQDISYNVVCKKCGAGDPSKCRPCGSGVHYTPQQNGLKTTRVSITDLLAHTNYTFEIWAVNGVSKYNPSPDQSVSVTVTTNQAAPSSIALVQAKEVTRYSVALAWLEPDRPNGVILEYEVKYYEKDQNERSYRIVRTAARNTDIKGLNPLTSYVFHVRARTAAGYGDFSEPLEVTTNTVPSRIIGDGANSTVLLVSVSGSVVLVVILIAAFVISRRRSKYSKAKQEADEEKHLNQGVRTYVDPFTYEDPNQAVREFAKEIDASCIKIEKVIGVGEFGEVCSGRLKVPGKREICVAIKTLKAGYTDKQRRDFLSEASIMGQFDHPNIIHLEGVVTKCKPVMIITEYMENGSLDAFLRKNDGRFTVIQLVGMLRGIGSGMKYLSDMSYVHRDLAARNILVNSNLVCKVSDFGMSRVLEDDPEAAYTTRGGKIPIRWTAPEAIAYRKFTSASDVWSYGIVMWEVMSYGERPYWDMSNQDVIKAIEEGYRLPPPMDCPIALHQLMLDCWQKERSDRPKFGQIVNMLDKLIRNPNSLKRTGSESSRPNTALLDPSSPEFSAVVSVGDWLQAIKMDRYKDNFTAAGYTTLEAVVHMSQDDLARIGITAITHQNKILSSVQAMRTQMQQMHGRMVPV

| Molecule | Kd (EphA4 receptor on cells) [µM] | Kd [1] [µM] |
| --- | --- | --- |
| pre-clustered ephrin-B2 (receptor binding domain of murine ephrin-B2, residues 30-170, biotinylated) (from UniProt P52800 30-170) (ligand) | 0.501 | – |
| pre-clustered ephrin-A5 (receptor binding domain of murine ephrin-A5, residues 28-164, biotinylated) (ligand, biotin on the Avi tag (BirA)) VADRYAVYWNSSNPRFQRGDYHIDVCINDYLDVFCPHYEDSVPEDKTERYVLYMVNFDGYSACDHTSKGFKRWECNRPHSPNGPLKFSEKFQLFTPFSLGFEFRPGREYFYISSAIPDNGRRSCLKLKVFVRPTNSC | – | 0.112 |
| ephrin-B1 (ligand) ATPLAKNLEPVSWSSLNPKFLSGKGLVIYPKIGDKLDIICPRAEAGRPYEYYKLYLVRPEQAAACSTVLDPNVLVTCNKPHQEIRFTIKFQEFSPNYMGLEFKKYHDYYITSTSNGSLEGLENREGGVCRTRTMKIVMKVGQDPNAVTPEQLTTSRPSKESDNTVKTATQAPGRGSQGDSDGKHETVNQEEKSGPGAGGGGSGDSDSFFNSK | – | 0.00664 |
| pre-clustered ephrin-B2 (receptor binding domain of murine ephrin-B2, residues 30-170, biotinylated) (ligand, biotin on the Avi tag (BirA)) SIVLEPIYWNSSNSKFLPGQGLVLYPQIGDKLDIICPKVDSKTVGQYEYYKVYMVDKDQADRCTIKKENTPLLNCARPDQDVKFTIKFQEFSPNLWGLEFQKNKDYYIISTSNGSLEGLDNQEGGVCQTRAMKILMKVGQD | – | 0.00353 |
